Where a SMILES comes first, the peptide text is derived from it. Where no end group is shown, it is not given here. [ ]: non-standard residue; d: D form. Hyp = O=C(O)[C@@H]1C[C@@H](O)CN1; 2Thi = N[C@@H](Cc1cccs1)C(=O)O
Legend:
[1] = molecular target: T1, human BK-2 receptor (Homo sapiens, UniProt P30411); experiment: Competition binding against 100 pM [3H]BK, membranes of COS-7 cells expressing the cloned receptor; conditions: for IC50: competition with [3H]BK, read-out: IC50, displacement of [3H]BK binding; for Inhibition of BK binding: at a concentration of 10 uM
T1 construct: permitted the construction of a cDNA clone encoding a full length BK-2 receptor from the cleavage fragments of the two clones; expressed in transfected cells; host or cells: COS-7 cells, vector pcDNA I-Neo, membranes
T1 sequence (P30411 1-364 isoform P30411-2): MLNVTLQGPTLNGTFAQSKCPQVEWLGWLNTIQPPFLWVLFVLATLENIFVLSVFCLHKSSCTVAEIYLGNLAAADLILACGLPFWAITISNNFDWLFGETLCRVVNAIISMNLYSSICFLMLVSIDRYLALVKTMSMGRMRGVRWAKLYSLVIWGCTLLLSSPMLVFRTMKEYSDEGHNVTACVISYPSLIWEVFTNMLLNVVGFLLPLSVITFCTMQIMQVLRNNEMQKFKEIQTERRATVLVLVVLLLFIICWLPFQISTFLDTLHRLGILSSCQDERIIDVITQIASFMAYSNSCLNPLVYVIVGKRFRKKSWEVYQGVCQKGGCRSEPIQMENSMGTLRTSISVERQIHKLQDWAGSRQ
Procedure: (§1) Cells are then harvested after 72 hours and the membranes containing the expressed receptor protein are prepared by scraping the cells in phosphate buffered saline solution and centrifuging for ten minutes at 500×g. The cell pellet is then resuspended and homogenized with a Polytron in 20 mM N-tris(hydroxymethyl)methyl-2-aminoethane sulfonic acid (TES, pH 6.8 at room temperature) buffer containing 1 mM 1,10 phenanthroline. The homogenate is then centrifuged for ten minutes at […]. The final membrane pellet is resuspended in assay buffer (TES plus 0.1% protease free bovine serum albumin, 5 uM MK-422 (enalaprilat; Gross et al., J. Pharmacol. and Exper. Ther. 216, 552-557 (1981)) and 140 ug/ml bacitracin using a motor-driven teflon-glass tissue homogenizer. Protein determination are performed by the method of Bradford using bovine IgG as the standard. See Bradford, M. A. Anal. Biochem. 72, 248-254 (1976).
(§2) Binding assays are then performed to determine receptor antagonist or agonist interaction. The assays utilized in the instant invention follow the method of Manning et al., J. Pharmacol. Exp. Ther., 237, 504-512 (1986). […] (BRANDEL, Gaithersburg, Md.). The tubes are then rinsed two times with 4 ml ice-cold 10 uM TES and the filter bound radioactivity is quantitated by liquid scintillation counting. […] The competition and saturation experiments are analyzed using the EBDA program of McPherson. See McPherson, G. A. J Pharmacol. Methods 14, 213-218 (1985).
as §1, with “Cells were” for “Cells are”, “protein were” for “protein are”, “pellet was” for “pellet is”, “homogenate was” for “homogenate is”, “al., 1981)” for “al., J. Pharmacol. and Exper. Ther. 216, 552-557 (1981))”, “determination was” for “determination are”
as §2, with “assays were” for “assays are”, “tubes were” for “tubes are then”, “[…]” for “uM TES”, “radioactivity was” for “radioactivity is”, “experiments were” for “experiments are”

[2] = tested on: rat vas deferens; conditions: cited from earlier work
[3] = molecular target: T2, B2 receptors (Homo sapiens, UniProt P30411); conditions: cited from earlier work
T2 sequence (P30411 1-391): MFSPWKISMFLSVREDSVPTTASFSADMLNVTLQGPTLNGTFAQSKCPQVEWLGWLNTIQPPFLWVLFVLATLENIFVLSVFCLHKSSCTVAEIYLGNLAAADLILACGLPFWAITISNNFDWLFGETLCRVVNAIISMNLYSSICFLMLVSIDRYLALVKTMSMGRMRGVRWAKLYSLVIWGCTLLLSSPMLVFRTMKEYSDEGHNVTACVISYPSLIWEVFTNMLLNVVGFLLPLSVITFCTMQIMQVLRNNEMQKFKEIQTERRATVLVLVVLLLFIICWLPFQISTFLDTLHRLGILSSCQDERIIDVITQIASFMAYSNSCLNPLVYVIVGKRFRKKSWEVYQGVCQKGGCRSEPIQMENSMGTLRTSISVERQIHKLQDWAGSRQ

[4] = molecular target: T3, human bradykinin BK-2 receptor protein (human, UniProt P30411 28-391); experiment: competition binding with 100 pM [3H]BK, cloned human BK-2 receptor in membranes
T3 construct: also called human BK-2 bradykinin receptor; cloned BK receptor
T3 sequence: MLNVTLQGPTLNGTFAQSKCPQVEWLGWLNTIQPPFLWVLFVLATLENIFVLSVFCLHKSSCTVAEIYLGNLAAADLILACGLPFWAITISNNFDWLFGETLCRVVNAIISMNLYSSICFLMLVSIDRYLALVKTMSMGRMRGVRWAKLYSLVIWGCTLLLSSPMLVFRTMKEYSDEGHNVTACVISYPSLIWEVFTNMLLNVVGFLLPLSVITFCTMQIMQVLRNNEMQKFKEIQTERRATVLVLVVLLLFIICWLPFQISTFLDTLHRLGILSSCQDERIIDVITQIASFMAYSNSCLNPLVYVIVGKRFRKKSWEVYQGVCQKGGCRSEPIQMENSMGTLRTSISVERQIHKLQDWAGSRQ
Procedure: as §2, with “*J.” for “J.”, “Ther.*,” for “Ther.,”, “504–512” for “504-512”, “*J” for “J”, “Methods*” for “Methods”, “213–218” for “213-218”
(§3) Binding assays were then performed to determine receptor antagonist or agonist interaction. The assays utilized in the instant invention follow the method of Manning et al., *J. Pharmacol. Exp. Ther.*, 237, 504–512 (1986). […] (BRANDEL, Gaithersburg, Md.). The tubes were rinsed two times with 4 ml ice-cold 10 uM TEX and the filter bound radioactivity was quantitated by liquid scintillation counting. […] The competition and saturation experiments were analyzed using the EBDA program of McPherson. See McPherson, G. A. *J Pharmacol. Methods* 14, 213–218 (1985).

[5] = molecular target: T3, human bradykinin BK-2 receptor protein; experiment: competition binding with 100 pM [3H]BK, membranes of COS-7 cells expressing the receptor
Procedure: as §3, with “assays are” for “assays were”, “tubes are then” for “tubes were”, “[…]” for “uM TEX”, “radioactivity is” for “radioactivity was”, “experiments are” for “experiments were”
as §3

[6] = molecular target: T4, human bradykinin BK-2 receptor protein (human), P30411; experiment: displacement of 100 pM [3H]BK, cloned human BK-2 receptor in membranes
T4 chain: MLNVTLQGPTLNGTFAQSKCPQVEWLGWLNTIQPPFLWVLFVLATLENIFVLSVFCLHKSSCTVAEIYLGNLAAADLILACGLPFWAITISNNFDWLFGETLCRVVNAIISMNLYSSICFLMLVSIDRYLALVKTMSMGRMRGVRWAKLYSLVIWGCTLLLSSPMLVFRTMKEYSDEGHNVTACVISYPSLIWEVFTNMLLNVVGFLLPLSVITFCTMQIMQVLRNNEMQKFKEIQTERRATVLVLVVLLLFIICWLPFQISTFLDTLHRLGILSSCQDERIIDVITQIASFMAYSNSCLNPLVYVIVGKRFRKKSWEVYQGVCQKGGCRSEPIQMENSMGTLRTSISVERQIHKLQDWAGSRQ

N=C(N)NCCC[C@@H](N)C(=O)N[C@@H](CCCNC(=N)N)C(=O)N1C[C@H](O)C[C@H]1C(=O)N1C[C@H](O)C[C@H]1C(=O)NCC(=O)N[C@@H](Cc1cccs1)C(=O)N[C@@H](CO)C(=O)N[C@H](Cc1ccccc1)C(=O)N[C@@H](Cc1cccs1)C(=O)N[C@@H](CCCNC(=N)N)C(=O)O [D-Arg^0-[Hyp^2,3,-Thi^5,8D-Phe^7]BK] (H-[dR]R[Hyp][Hyp]G[2Thi]S[dF][2Thi]R-OH; N-terminus and C-terminus assumed)
IC50 [1]: 27 nM

N=C(N)NCCC[C@H](NC(=O)[C@H](Cc1cccs1)NC(=O)[C@@H](Cc1ccccc1)NC(=O)[C@H](CO)NC(=O)[C@H](Cc1cccs1)NC(=O)CNC(=O)[C@@H]1CCCN1C(=O)[C@@H]1CCCN1C(=O)[C@@H](N)CCCNC(=N)N)C(=O)O [[Thi^5,8,D-Phe^7]BK] (H-RPPG[2Thi]S[dF][2Thi]R-OH; N-terminus and C-terminus assumed)
IC50 [1]: 180 nM

CC[C@H](C)[C@H](NC(=O)[C@H](CC(=O)O)NC(=O)[C@H](CC(C)C)NC(=O)[C@H](Cc1c[nH]cn1)NC(=O)[C@@H]1CSSC[C@H](N)C(=O)N[C@@H](CO)C(=O)N[C@H]2CSSC[C@H](NC(=O)[C@H](CCC(=O)O)NC(=O)[C@H](CCCCN)NC(=O)[C@H](CC(=O)O)NC(=O)[C@H](CCSC)NC(=O)[C@H](CC(C)C)NC(=O)[C@H](CO)NC(=O)[C@H](CO)NC2=O)C(=O)N[C@@H](C(C)C)C(=O)N[C@@H](Cc2ccc(O)cc2)C(=O)N[C@@H](Cc2ccccc2)C(=O)N1)C(=O)N[C@H](C(=O)N[C@@H](Cc1c[nH]c2ccccc12)C(=O)O)[C@@H](C)CC [endothelin]
Competition for BK binding [1]: No competition

CC[C@H](C)[C@@H]1NC(=O)[C@H](Cc2ccc(O)cc2)NC(=O)[C@@H](N)CSSC[C@@H](C(=O)N2CCC[C@H]2C(=O)N[C@@H](CC(C)C)C(=O)NCC(N)=O)NC(=O)[C@H](CC(N)=O)NC(=O)[C@H](CCC(N)=O)NC1=O [oxytocin]
Competition for BK binding [1]: No competition

Des-Arg^9BK (RPPGFSPF) [BK-1 agonist, BK metabolite]
Pre- or postsynaptic BK like responses [2]: inactive | Activity at B2 receptors [3]: inactive | Inhibition of BK binding [1]: 18%

angiotensin I (DRVYIHPFHL) [peptide]
Competition for BK binding [1]: No competition

angiotensin II (DRVYIHPF) [peptide]
Competition for BK binding [1]: No competition

des-Arg^9-[Leu^8]-BK [Des-Arg^9, LeuBK]
Pre- or postsynaptic BK like responses [2]: inactive | Antagonism of BK responses in the vas deferens ([2]; incubation at high concentrations): failed to antagonize | Inhibition of BK binding [1]: 11%

met-lys-BK
Specificity of binding of BK analogues (rank order) ([1]; competition binding, data not shown): BK>lys-BK>met-lys-BK

B1: Hoe 140, D-Arg^0-[Hyp^3,Thi^5,D-Tic^7,Oic^8]BK (peptide)
peptide: RRPPGFSPFR
modifications: numbered on bradykinin: D-Arg at 0; Hyp at 3; Thi at 5; D-Tic at 7; Oic at 8
notes: Synthetic BK-2 antagonist with non-natural residues
IC50 [4]: 0.065 nM

B2: oxytocin (peptide, UniProt P01178 20-28, looked up)
peptide: CYIQNCPLG
binding result [5]: no binding

B3: met-lys-BK (peptide)
peptide: MKRPPGFSPFR
notes: It is built from its name (Met-Lys + bradykinin)
binding result [5]: binds

B4: D-Arg^0-[Hyp^2,3,-Thi^5,8D-Phe^7]BK (peptide)
peptide: [dR]R[Hyp][Hyp]G[2Thi]S[dF][2Thi]R
IC50 [6]: 27 nM
